According to patent US20230242676A1 (KISOJI BIOTECHNOLOGY, published 2023):

T1: SEQ ID NO 101 (Homo sapiens (Human), UniProt P0DOX5 343-449 = IgG part)
T1 construct: also called Mutated CH3 domain of KB100 Chain B (mutations D399N, K439E, E357Q, T350V)
T1 constant: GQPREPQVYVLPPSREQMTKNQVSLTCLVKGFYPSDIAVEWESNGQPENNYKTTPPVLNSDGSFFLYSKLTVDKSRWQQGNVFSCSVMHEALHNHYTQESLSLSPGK

T2: SEQ ID NO 95 (Homo sapiens (Human), UniProt P0DOX5 343-449 = IgG part)
T2 construct: also called Mutated CH3 domain of KB118 Chain B (mutations D399N); K439E
T2 constant: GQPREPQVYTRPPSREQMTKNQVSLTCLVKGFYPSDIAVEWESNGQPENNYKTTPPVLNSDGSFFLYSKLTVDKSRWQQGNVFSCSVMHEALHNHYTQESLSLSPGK


Key:
SEQ ID NO 101 = target: T1, SEQ ID NO 101; test: co-expression of Chain A and Chain B vectors, SDS-PAGE and Western blot; heterodimer formation
SEQ ID NO 95 = target: T2, SEQ ID NO 95; test: as above

Binder | binding result (SEQ ID NO 101) | binding result (SEQ ID NO 95)
SEQ ID NO 100 (other, also called Mutated CH3 domain of KB099 Chain A (mutations D399N, K370E, E356Q, T350V)) constant: GQPREPQVYVLPPSRQEMTKNQVSLTCLVEGFYPSDIAVEWESNGQPENNYKTTPPVLNSDGSFFLYSKLTVDKSRWQQGNVFSCSVMHEALHNHYTQKSLSLSPGK | binds | –
SEQ ID NO 102 (other, also called Mutated CH3 domain of KB105 Chain A (mutations D399N, K370E, E356Q, P352R)) constant: GQPREPQVYTLRPSRQEMTKNQVSLTCLVEGFYPSDIAVEWESNGQPENNYKTTPPVLNSDGSFFLYSKLTVDKSRWQQGNVFSCSVMHEALHNHYTQKSLSLSPGK | – | binds
SEQ ID NO 103 (other, also called Mutated CH3 domain of KB108 Chain A (mutations D399N, K370E, E356Q, P352E)) constant: GQPREPQVYTLEPSRQEMTKNQVSLTCLVEGFYPSDIAVEWESNGQPENNYKTTPPVLNSDGSFFLYSKLTVDKSRWQQGNVFSCSVMHEALHNHYTQKSLSLSPGK | – | binds
